Reference: patent US12227570B2, “Anti-CEACAM6 antibodies and methods of use” (Singapore Health Services PTE LTD, priority 2016, dated 2025)

Key:
[1] = target: T1, CEACAM6 (Homo sapiens, UniProt P40199); assay: Binding after siRNA knock down of CEACAM6; type: cell-based; settings: PC-9 cells; Western blot and flow cytometry
T1 construct: 20 μg of PC-9 membrane protein extract was first denatured; endogenous in cells; host or cells: PC-9 cells
T1 sequence (P40199 35-320): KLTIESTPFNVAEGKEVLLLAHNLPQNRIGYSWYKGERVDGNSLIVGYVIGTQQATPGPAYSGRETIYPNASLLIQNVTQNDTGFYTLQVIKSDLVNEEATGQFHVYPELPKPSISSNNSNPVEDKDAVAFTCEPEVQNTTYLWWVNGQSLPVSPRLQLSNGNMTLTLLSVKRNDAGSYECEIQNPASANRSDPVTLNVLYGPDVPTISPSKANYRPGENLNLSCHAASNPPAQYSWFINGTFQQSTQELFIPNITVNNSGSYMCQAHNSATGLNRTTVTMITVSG

[2] = tested on: normal tissues; assay: IHC staining on FFPE normal tissue microarray (MNO961)
Procedure: TMA slides containing FFPE tissues were first heated in an oven at 60° C. for 30 min to remove any solvents. The slides were then dewaxed and re-hydrated through sequential immersion in Histoclear (2×), 100% ethanol (2×), 95% ethanol, 70% ethanol, and finally in DI water.
Heat-induced epitope retrieval was done in a solution containing 10 mM Tris Base, 1 mM EDTA, 0.05% Tween 20 at pH 9.0, and heated at 95° C. for 20 min. The container with the antigen retrieval solution and slides was then removed and allowed to cool to room temperature for an additional 20 min. The slides were then washed in DI water. Endogenous peroxidase activity was then blocked by incubation of the slides with 3% H2O2 in PBS for 30 min at room temperature. The slides were washed in DI water, followed by a blocking step with 10% normal goat serum in PBS for 30 min.
The slides were then incubated with GR6A04 at 5 μg/mL in blocking solution overnight at 4° C. The slides were then washed an incubated with a polymer-based anti-mouse secondary antibody conjugated with HRP (DAKO, USA) for 30 min at room temperature, and developed with the recommended DAB chromogen substrate solution for 2 min, and counterstained with Gill's Hematoxylin solution.
The stained slides were subsequently dehydrated through immersion in 50% ethanol, 70% ethanol, 90% ethanol, 100% ethanol (2×) and Histoclear (2×), before mounting with a glass cover slip. The slides were then imaged with the Zeiss AxioScan Digital Slide Scanner.

B1: GR6A04: mouse IgG1, κ anti-CEACAM6 monoclonal antibody, VH SEQ ID NO:1, VL SEQ ID NO:2, binds N-glycosylated CEACAM6 (antibody, V domains shown)
VH: SGPELVKPGASVKMSCKASGNTFTSYVMHWVKQKPGQGLEWIGYINPYNDGTKYNEKFKGKATLTSDKSSSTAYMELSSLTSEDSAVYYCARSTARATPYFYAMDYWGQGTSVTVSS
VL: DILMTQSPSSLAVTAGEKVTMRCKSSQSLLWSVNQNSYLSWYQLKQGQPPKLLLYGASIRESWVPDRFTGSGSGTDFTLTISNVHVEDLAVYYCQHNHGSFLPYTFGGGTKLEIK
modifications: Isolated antibody fragment
[1]
  binding after knockdown of CEACAM6 expression: decrease
[2]; MNO961
  colon cores weakly positive (2+): 2 of 3
  normal tissue cores stained positive: 3
  prostate cores weakly positive (2+): 1 of 3
[2]; MNO961, 35 anatomical sites
  normal tissue cores with no staining: 93 of the 96
